Substitutions are numbered along the chain they refer to. Ends that are not written are not given here.
B1: NEO-101 antibody (chimeric) (antibody, V domains shown)
VH: QVQLKESGPDLVAPSQSLSITCTVSGFSLSKFGVNWVRQPPGKGLEWLGVIWGDGSTSYNSGLISRLSISKENSKSQVFLKLNSLQADDTATYYCVKPGGDYWGHGTSVTVSS
VL: QVVLTQSPVIMSASPGEKVTMTCSASSSISYMYWYQQKPGTSPKRWIYDTSKLASGVPARFSGSGSGTSYSLTISNMEAGDAATYYCHQRDSYPWTFGGGTNLEIK
notes: Chimeric, murine variable regions with human constant regions; Used unlabeled, biotinylated, FITC-labeled or coupled to Dynal beads depending on the assay; also called NPC-1C; NPC-1-C
B2: synthetic peptide 4-1-3-C11 (control peptide) (peptide)
peptide: YSHSVHAIEDNWSPRGGGGS
modifications: also: biotinylated (position not given here)
notes: also called negative control
B3: M13 phage clone 4-1-2-C5 (other)
chain: WHTLPEKSLDENGGGSAETVESCLAKPHTENSFTNVWKDDKTLDRYANYEGCLWNATGVVVCTGDETQCYGTWVPIGLAIPENEGGGSEGGGSEGGGSEGGGTKPPEYGDTPIPGYTYINPLDGTYPPGTEQNPANPNPSLEESQPLNTFMFQNNRFRNRQGALTVYTGTVTQGTDPVKTYYQYTPVSSKAMYDAYWNGKFRDCAFHSGFNEDPFVCEYQGQSSDLPQPPVNAGGGSGGGSGGGSEGGGSEGGGSEGGGSEGGGSGGGSGSGDFDYEKMANANKGAMTENADENALQSDAKGKLDSVATDYGAAIDGFIGDVSGLANGNGATGDFAGSNSQMAQVGDGDNSPLMNNFRQYLPSLPQSVECRPFVFSAGKPYEFSIDCDKINLFRGVFAFLLYVATFMYVFSTFANILRNKES
notes: Whole phage particle displaying the peptide on pIII
B4: M13 phage clone 4-1-3-C8 (other)
chain: B3 chain with K7S, S8G, L9E, D10V, E11T, N12S
notes: as for B3
B5: M13 phage clone 4-1-3-C11 (other)
chain: VHAIEDNWSPRGGGGSAETVESCLAKPHTENSFTNVWKDDKTLDRYANYEGCLWNATGVVVCTGDETQCYGTWVPIGLAIPENEGGGSEGGGSEGGGSEGGGTKPPEYGDTPIPGYTYINPLDGTYPPGTEQNPANPNPSLEESQPLNTFMFQNNRFRNRQGALTVYTGTVTQGTDPVKTYYQYTPVSSKAMYDAYWNGKFRDCAFHSGFNEDPFVCEYQGQSSDLPQPPVNAGGGSGGGSGGGSEGGGSEGGGSEGGGSEGGGSGGGSGSGDFDYEKMANANKGAMTENADENALQSDAKGKLDSVATDYGAAIDGFIGDVSGLANGNGATGDFAGSNSQMAQVGDGDNSPLMNNFRQYLPSLPQSVECRPFVFSAGKPYEFSIDCDKINLFRGVFAFLLYVATFMYVFSTFANILRNKES
notes: Whole phage particle; its peptide served as the control peptide
B6: M13 phage clone 4-1-3-C9 (other)
chain: FPEDYFRYTNQKGGGSAETVESCLAKPHTENSFTNVWKDDKTLDRYANYEGCLWNATGVVVCTGDETQCYGTWVPIGLAIPENEGGGSEGGGSEGGGSEGGGTKPPEYGDTPIPGYTYINPLDGTYPPGTEQNPANPNPSLEESQPLNTFMFQNNRFRNRQGALTVYTGTVTQGTDPVKTYYQYTPVSSKAMYDAYWNGKFRDCAFHSGFNEDPFVCEYQGQSSDLPQPPVNAGGGSGGGSGGGSEGGGSEGGGSEGGGSEGGGSGGGSGSGDFDYEKMANANKGAMTENADENALQSDAKGKLDSVATDYGAAIDGFIGDVSGLANGNGATGDFAGSNSQMAQVGDGDNSPLMNNFRQYLPSLPQSVECRPFVFSAGKPYEFSIDCDKINLFRGVFAFLLYVATFMYVFSTFANILRNKES
notes: as for B3
B7: M13 phage clone 4-1-4-C12 (other)
chain: SLPDDWFRYINYGGGSAETVESCLAKPHTENSFTNVWKDDKTLDRYANYEGCLWNATGVVVCTGDETQCYGTWVPIGLAIPENEGGGSEGGGSEGGGSEGGGTKPPEYGDTPIPGYTYINPLDGTYPPGTEQNPANPNPSLEESQPLNTFMFQNNRFRNRQGALTVYTGTVTQGTDPVKTYYQYTPVSSKAMYDAYWNGKFRDCAFHSGFNEDPFVCEYQGQSSDLPQPPVNAGGGSGGGSGGGSEGGGSEGGGSEGGGSEGGGSGGGSGSGDFDYEKMANANKGAMTENADENALQSDAKGKLDSVATDYGAAIDGFIGDVSGLANGNGATGDFAGSNSQMAQVGDGDNSPLMNNFRQYLPSLPQSVECRPFVFSAGKPYEFSIDCDKINLFRGVFAFLLYVATFMYVFSTFANILRNKES
notes: as for B3

Legend:
[1] = target: T1, MUC5AC truncation construct 1-85 (human, UniProt P98088 1734-1794); assay: immunofluorescence of transfected 293T cells
T1 chain: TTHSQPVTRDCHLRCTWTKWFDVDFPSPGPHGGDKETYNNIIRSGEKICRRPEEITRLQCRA
Experimental: (§1) Cells were transiently transfected with 2 μg of MUC5AC constructs of Table 8 with LIPOFECTAMINE®. Cells were grown for about 72 hours, fixed with about 4% PFA in PBS, washed with PBS, permeabilized with about 0.2% […] in PBS and washed with PBS. […] Cells were washed with PBS and second anti human-FITC antibody (1:500) was added to all wells and to the second antibody control wells. Cells were washed and mounted on slides with DAPI hard mount. Cover slides were allowed to sit over night at about 4° C. Slides were visualized with a Nikon Eclipse Ti microscope with an Andor camera. At least 3 random fields were counted per transfection.

[2] = target: T2, MUC5AC truncation construct 1-136 (human, UniProt P98088 3212-4055); assay: immunofluorescence of transfected 293T cells
T2 sequence: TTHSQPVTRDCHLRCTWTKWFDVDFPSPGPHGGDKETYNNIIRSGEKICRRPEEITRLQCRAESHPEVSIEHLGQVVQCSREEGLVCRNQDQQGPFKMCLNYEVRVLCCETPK
Experimental: as §1

[3] = target: B1; assay: ELISA, biotinylated peptide on NEO-101 coated plate
Experimental: To solve the poor binding of peptides to 96 well plate, peptides were biotinylated using EZ-link micro NHS Biotinylation kit (Pierce Cat#21955), and labeling efficiency checked by dot blot (50%). […] The solution was blocked with 200 μl of 1% milk in TBS at RT for 20 min, Aliquots of 100 μl peptide-biotin (1 μg/ml) in 0.1% milk-TBS were added, and incubated at RT of 2 hr, followed by three washes with TBST. Streptavidin-HRP (100 μl of 1:2000 diluted in 1:10 diluted blocking buffer) was added, and the wells incubated at RT for 1 hr, followed by three washed. TMB was then added, and the wells were read at 450 nm. Positive controls for NPC-1C binding used 4B6-biotin. The results are shown in FIG. 11, which indicates biotinlyated peptides bind to NPC-1C coated plate.

[4] = target: B1; assay: competition: phage premixed with NEO-101-coupled beads, then rosetting of CFPAC1 cells
Experimental: The M13 clones identified by the biopanning were also immunoassayed using magnetic beads. […] CFPAC1 cells (30 μl of 10⁶cells/ml) were added and incubated at 4° C. for 30 min. Rosetted cells were counted (>8 beads/cell).

| Binder | Positive rosette cells (%) [4] [%] | also measured |
| --- | --- | --- |
| B1 | – | binding result [1]: no binding (tested: about 2 µg/ml); binding result [2]: no binding (tested: about 2 µg/ml) |
| B2 | – | binding result [3]: no binding (tested: 1 µg/ml) |
| B3 | 0 | – |
| B4 | 0 | – |
| B5 | 38 | – |
| B6 | 0 | – |
| B7 | 0 | – |

From US20130247232A1 (PRECISION BIOLOGICS, published 2013)
